Positions count from the first letter of the chain named.

Data set [1] deals with the molecule itself. Kind of data set: cryo-EM structure; helical reconstruction of the helical stems of double-headed nucleocapsids (RELION 3.1); protein with bound host RNA in 20 mM Tris-HCl pH 7.4, 150 mM NaCl.
Data set [2] deals with the molecule itself. The experiment in a line: electron microscopy of purified filaments; purified mutant nucleoproteins imaged by EM; whether negative stain or cryo-EM is not told in the text shown.
Data set [3] deals with the molecule itself. The experiment in a line: cryo-EM imaging of filaments; nucleoprotein fractions from HEK293F lysate after two-step sucrose ultracentrifugation, put directly on cryo-EM grids.

B1: Sendai virus nucleoprotein, wild type, uncleaved (NWT), assembled as nucleocapsid NCWT (natural protein)
chain: MAGLLSTFDTFSSRRSESINKSGGGAVIPGQRSTVSVFVLGPSVTDDADKLSIATTFLAHSLDTDKQHSQRGGFLVSLLAMAYSSPELYLTTNGVNADVKYVIYNIEKDPKRTKTDGFIVKTRDMEYERTTEWLFGPMVNKSPLFQGQRDAADPDTLLQIYGYPACLGAIIVQVWIVLVKAITSSAGLRKGFFNRLEAFRQDGTVKGALVFTGETVEGIGSVMRSQQSLVSLMVETLVTMNTARSDLTTLEKNIQIVGNYIRDAGLASFMNTIKYGVETKMAALTLSNLRPDINKLRSLIDTYLSKGPRAPFICILKDPVHGEFAPGNYPALWSYAMGVAVVQNKAMQQYVTGRTYLDMEMFLLGQAVAKDAESKISSALEDELGVTDTAKERLRHHLANLSGGDGAYHKPTGGGAIEVALDNADIDLEPEAHTDQDARGWGGDSGDRWARSMGSGHFITLHGAERLEEETNDEDVSDIERRIARRLAERRQEDATTHEDEGRNNGVDHDEEDDAAAAAGMGGI
notes: Sendai virus nucleoprotein (N), wild type, uncleaved; the N-tail is printed as 404-524; helical polymer, number of protomers not fixed; also called SeV nucleoprotein; SeV nucleocapsid; source: E. coli BL21 (DE3), purified (HisTrap HP, Superose 6 increase)
As to B1, the binding result in data set [1] is reported as “binds”.

B2: Sendai virus nucleoprotein loop mutant (residues 118 to 127 replaced with all alanine) (natural protein)
chain: B1 chain with F118A, I119A, V120A, K121A, T122A, R123A, D124A, M125A, E126A, Y127A
notes: Sendai virus nucleoprotein (N), derivative of NWT; also called Loop118–127 mutant; source: E. coli BL21 (DE3), purified (HisTrap HP, Superose 6 increase)
Take B2: the binding result in data set [2] is “binds”.

B3: Sendai virus nucleoprotein NWT over-expressed in HEK293F cells (natural protein)
chain: B1 chain
notes: Sendai virus nucleoprotein (N), wild type; Fractions were chosen by western blot against the 6xHis tag; also called NWT in pCAGGS; nucleoproteins isolated from HEK293F cells; source: HEK293F, transfected, isolated from lysate by two-step sucrose ultracentrifugation; not shown: His6, C-terminal, kept
Consider B3, for which the binding result in data set [3] is “binds”.

(Values after publication PMC8062630, “Structure and assembly of double-headed Sendai virus nucleocapsids” (Communications Biology, 2021).)
